Assay [1] relates to Con A-induced suppression. As to the kind of experiment: Reversal of Con A-induced suppression of the splenic plaque-forming cell (PFC) response to SRBC in mice. In kind it is in vivo. The settings on record: for Geom. Mean of PFC/Spleen On Day 5, Expt. 2 / Immunomodulatory activity against suppression induced by 5 μg Con A (result in words): LA-PF4 0.6 μg; for Immunomodulatory activity against suppression induced by 5 μg Con A (result in words): concentrations well below those in serum: PDGF 0.003 μg, purified PF4 0.2 to 0.6 μg per mouse; for Reversal of Con A-induced suppression (result in words): mice, PFC response to SRBC. The procedure:
Concanavalin A (Miles--Yeda Ltd., Research Products, Israel) was reconstituted with saline and kept frozen. Dilutions from the frozen stock were stored at 4° C. and injected i.v. into mice one day prior to antigen, sheep erythrocytes (SRBC). SRBC were obtained from Colorado Serum Company (Denver, Colorado) washed, counted and injected intraperitoneally (i.p.) in mice. Human serum or platelet releasate was administered i.v. one to two hours before Con A i.v.
The spleens of the mice were assayed for plaque-forming cells (PFC) on day 5 after injection of sheep red blood cells. The assay employed was as follows: single-cell suspensions were prepared from individual spleens of mice. The cells were suspended in Hanks' Balanced Salt Solution (Gibco Laboratories, Grand Island, New York) and washed. Direct PFC were enumerated using the well-known method of Jerne, N.K. et al (in Cell-Bound Antibody, Amos, E. and Koprowsky, H. eds., Wistar Institute Press. pp. 109-111, […]) with the slide modification of Mishell, R.I. and Dutton, R.W. (J. Exp. Med. 126:423, 1967), both incorporated by reference. […]
When treated with thrombin or A23187 (Calcium ionophore), platelets also release alpha granule constituents other than PF4. In particular, they release LA-PF4 and PDGF. The inventors tested the ability of LA-PF4 and PDGF to overcome suppression induced by 5 μg Con A. […]
Mice were injected with 10 micrograms of Con A i.v. on day -1 (except in the positive control, which received no Con A) and on day 0 with 2.5×10^6 SRBC per mouse as in Example 2 above. On day -1, the mice also received either: Nothing (100% control), Con A only, platelet releasate (equivalent to the amount of PF4 holoprotein contained in the platelet releasate from 2×10^7 platelets or about 0.12 microgram/mouse) and various concentrations of the above-mentioned synthetic C-terminal peptide of human PF4.

A further assay has as its system PFC response to SRBC. The assay is described as follows: PFC response to SRBC in mice not injected with Con A (adjuvant effect). The settings on record: mouse, in vivo. The arrangement: species or system CB6F1 mouse. As for the experimental part: The spleens of the mice were assayed for plaque-forming cells (PFC) on day 5 after injection of sheep red blood cells. The assay employed was as follows: single-cell suspensions were prepared from individual spleens of mice. The cells were suspended in Hanks' Balanced Salt Solution (Gibco Laboratories, Grand Island, New York) and washed. Direct PFC were enumerated using the well-known method of Jerne, N.K. et al (in Cell-Bound Antibody, Amos, E. and Koprowsky, H. eds., Wistar Institute Press. pp. 109-111, […]) with the slide modification of Mishell, R.I. and Dutton, R.W. (J. Exp. Med. 126:423, 1967), both incorporated by reference.
In order to confirm and expand this finding, 1 ml o serum, diluted 1:2, was absorbed twice for thirty minutes at 4° C. using half the number of cells for each absorption as are listed for spleen (Sp1), lymphnode (LN) and thymus (Thy) in Table 3. Each CB6F1 mouse received 0.2 ml of a 1:4 dilution of absorbed or unabsorbed serum i.v. one to two hours before administration of 2×10^6 SRBC i.v. Plaque-forming cell response was measured as in Example 2.

[2] abbreviates: 5 μg Con A, n = 4, PF4 0.2 to 0.6 μg per mouse.

Results on two molecules are retold here after patent US4844895A, “Composition containing a peptide fragment of platelet factor four and method for restoring suppressed immune responses” (New York University, priority 1987, dated 1989).

B1: PF4: human platelet factor 4 purified from platelet releasate on heparin-agarose (protein, UniProt P02776 32-101, looked up)
Platelet factor 4: EAEEDGDLQCLCVKTTSQVRPRHITSLEVIKAGPHCPTAQLIATLKNGRKICLDLQAPLYKKIIKKLLES
Turning to B1, the “Geom. Mean of PFC/Spleen On Day 5, Expt. 2” value in assay [1] (setting [2]) is 22,910 PFC/Spleen. For the same molecule, the “Geom. Mean of PFC/Spleen On Day 5, Expt. 3” value in assay [1] (5 μg Con A, n = 4, PF4 0.2 to 0.6 μg per mouse, PF4 + heparin mixture diluted 1:15, 0.2 ml per mouse) is 34,420 PFC/Spleen. For the same molecule, in assay [1], the “Immunomodulatory activity against suppression induced by 5 μg Con A (result in words)” value was “very marked activity” and the “Reversal of Con A-induced suppression (result in words)” value is “able to overcome Con A-induced suppression in a dose-dependent fashion”. Moreover, in the assay on PFC response to SRBC, the “Enhancement of antibody (PFC) response without immunosuppressive agent (result in words)” value is “can also stimulate antibody formation even in mammals not treated with an immunosuppressive agent”.

B2: LA-PF4: low-affinity platelet factor 4, platelet alpha-granule constituent (protein, UniProt P02775 44-128, looked up)
Connective tissue-activating …: NLAKGKEESLDSDLYAELRCMCIKTTSGIHPKNIQSLEVIGKGTHCNQVEVIATLKDGRKICLDPDAPRIKKIVQKKLAGDESAD
modifications: Connective tissue-activating peptide III
Regarding B2, the “Geom. Mean of PFC/Spleen On Day 5, Expt. 2” value in assay [1] (setting [2]) is on record as 9,440 PFC/Spleen. In assay [1], the “Immunomodulatory activity against suppression induced by 5 μg Con A (result in words)” value is “a small amount” and the “Reversal of Con A-induced suppression (result in words)” value is on record as “no significant immunomodulating activity”.
